Experimental data: publication PMC7509637 (Advanced Science, 2020)
Entries after “also recorded” stand apart in the source; their conditions may differ.

B1: FapCS: FapC seeds obtained by sonication of mature FapC fibrils (P. aeruginosa) (protein)
chain: GNEGGWHPPKPNPQSNNKGGATALVVDTQQNYNNKVSNFGTLNNASVSGSIKDASGNVGVNVAAGDNNQQANAAALASADASFVFGTATASTSVLQSGYGNTLNNYSNPNTASLSNSANNVSGNLGVNVAAGNFNQQKNDLAAAVSNGQYSTAGSAASQTSTGNTTVNSANYAYGGTYVSLKLNADGSYKGTSDQIGDVYLDTWEGQTHPGGSNTGHIDVDSQAQGAKDLNHDGGAFAFKEKGDVDLKGTVSGFIPAIVGFKTPVTNNASLSNSLQNVSGNVGVNIAAGGGNQQSNSLSIAAGCSSCPAGGESLGF

Columns and labels:
[1] = biological target: T1, Aβ (Homo sapiens, UniProt P05067); test: TEM imaging of Aβ with FapC species or bLgS; conditions: 12 h incubation, uranyl acetate negative stain
T1 construct: purchased Anaspec Inc
Experimental: Aβ incubated in the presence or absence of FapCS, FapC monomers, FapC fibrils or bLgS were subjected to TEM imaging. After incubation for 12 h, a drop of sample was applied on a glow‐discharged carbon‐coated copper grid. After 1 min, the sample was blotted and then negatively stained with uranyl acetate (1%) for 30 s. The dried grid was then imaged with a Technei F20 TEM at 200 kV. For AFM, a drop of sample was placed on freshly cleaved mica surface and rinsed with water after 2 min and dried with pressurized air. The sample was scanned with an AFM (Nanoscope VIII Multimode Scanning Force Microscopes, Bruker), covered with an acoustic hood to minimize the vibrational noise. Images were acquired under the tapping mode with a silicon nitride cantilever (Bruker). AFM images were processed with Nanoscope Analysis 1.5 software to flatten the background and to calculate the statistical parameters.

[2] = system: adult zebrafish brain; test: TUNEL assay in brain of adult zebrafish; type: in vivo, zebrafish (AB, Danio rerio); conditions: for TUNEL assay, DNA damage / cell death (in words): n = 3
Experimental: Adult zebrafish (10 months) were employed for the study. Prior to microinjection, adult zebrafish were anesthetized by placing them in a beaker filled with ice‐chilled tricaine (0.01% in Holtfreter's buffer) for 20 s. The samples of Aβ alone and Aβ with FapCS or bacterial biofilm fragments were injected to the cerebroventricular space of adult fish with a 1 µL Hamilton glass syringe. The concentration of the Aβ peptide was 40 × 10^−6 M (in PBS, pH 7.4) while FapCS or biofilm fragments were included at a 10:1 ratio (Aβ:FapCS or biofilm fragments). The needle penetrated between left and right telencephalon for not more than 1 mm and injection volume was 1 µL. The syringe was washed with ethanol and PBS in between the injections. The injections were made under a stereomicroscope and fish were held in place with forceps. After microinjection, the fish was placed back in the water tank for recovery.
The deposition of Aβ, depletion of synaptophysin positive cells and TUNEL assay were measured by IHC. The adult fish, at 4 d or 2 weeks postinjection with Aβ and Aβ with FapCS or biofilm fragments, were euthanized by placing in ice‐chilled tricaine (0.4% in Holtfreter's buffer) for 1 min. The head of the fish was separated at pectoral fin point with a sharp blade and fixed in paraformaldehyde as described in the “Animal husbandry and ethics statement” section. The fixed heads were dehydrated by dipping in gradual concentration of ethanol, i.e., 20%, 40%, 60%, 80%, and 100% with 10 min at each step. The heads were treated with 20% sucrose overnight, mounted with Tissue Trek OCT mounting medium at −20 °C. The heads were then sectioned into […] section with a cryostat. The sections were mounted on a gelatinized glass slide and immunostained with antibodies. The sections were dried, washed thrice in PBS (pH 7.4), and TritonX‐100 (0.05% in PBS) for 5 min each. […] The sections were imaged by a fluorescence microscope and fluorescence intensities were measured from the images with Fiji ImageJ analysis.

[3] = system: zebrafish larvae; test: Behavioral pathology of zebrafish larvae (Zebrabox); type: in vivo, zebrafish (AB, Danio rerio); conditions: 2 d postinjection, 1 h observation
Experimental: Aβ (HFIP‐treated) was dissolved in PBS (pH 7.4) to make a stock solution. Aβ (100 × 10^−15 M) was injected into the cerebroventricular space of one week old zebrafish larvae. Aβ with FapCS was injected at a 10:1 molar ratio (Aβ:FapCS, 100 × 10^−15:10 × 10^−15 M). PBS alone and untreated larvae were used as negative controls. Zebrafish larvae were anesthetized by adding a few drops of tricaine (0.4%) in the petri dish. When larvae stopped to move in response to the tapping stimuli, the larvae were transferred to an injection template made from 1% agarose gel. Microinjection of Aβ was performed with a calibrated microneedle and pneumatic microinjection system (PV830 WPI), under a stereomicroscope. The injection pressure was set to 20 psi, the injection volume was 10 nL, and the injections were made with a micromanipulator. The tip of the needle was inserted into the ventricular space of larvae and penetration across the soft skin of dorsal tissue (central meeting point of both telencephalons) was not more than 0.3 mm. […]
Behavior of zebrafish larvae was observed by an automated zebrafish behavior recording system Zebrabox (Viewpoint). […] The trajectories of the zebrafish movements were also recorded by the instrument and all behavior measurements were done in a 96‐well plate with one larva per well. […]

| Molecule | TEM observation [1] | TUNEL assay, DNA damage / cell death (in words) ([2]; 2 weeks postinjection) | TUNEL assay, DNA damage / cell death (in words) ([2]; 4 d postinjection) | larval swimming behavior (in words) [3] | DNA damage / toxicity (in words) ([2]; FapCS alone, 4 × 10^−6 M, Figure S13) |
| --- | --- | --- | --- | --- | --- |
| amyloid beta [Aβ] | prefibrillary oligomers | neuronal cell death; also recorded: DNA damage per the TUNEL assay | negative TUNEL assay | slightly lower movement frequency |  |
| B1 | appeared to adsorb onto the growing Aβ fibers |  |  | significantly aggravated (**, P < 0.005) Aβ toxicity and reduced the movement frequency and total travel distance | no DNA damage; also recorded: non‐toxic nature |
